Laboratory results as given in patent US20250277030A1 (Zymeworks, published 2025).

Columns and labels:
[1] = molecular target: T1, human sodium-dependent phosphate transporter 2B (NaPi2b) (human, UniProt O95436 1-690); assay: flow cytometry, HEK293-6e cells transfected with human NaPi2b
T1 construct: UniProt ID is given as 095436 [sic]; also called hNaPi2b; Hu NaPi2b
T1 sequence: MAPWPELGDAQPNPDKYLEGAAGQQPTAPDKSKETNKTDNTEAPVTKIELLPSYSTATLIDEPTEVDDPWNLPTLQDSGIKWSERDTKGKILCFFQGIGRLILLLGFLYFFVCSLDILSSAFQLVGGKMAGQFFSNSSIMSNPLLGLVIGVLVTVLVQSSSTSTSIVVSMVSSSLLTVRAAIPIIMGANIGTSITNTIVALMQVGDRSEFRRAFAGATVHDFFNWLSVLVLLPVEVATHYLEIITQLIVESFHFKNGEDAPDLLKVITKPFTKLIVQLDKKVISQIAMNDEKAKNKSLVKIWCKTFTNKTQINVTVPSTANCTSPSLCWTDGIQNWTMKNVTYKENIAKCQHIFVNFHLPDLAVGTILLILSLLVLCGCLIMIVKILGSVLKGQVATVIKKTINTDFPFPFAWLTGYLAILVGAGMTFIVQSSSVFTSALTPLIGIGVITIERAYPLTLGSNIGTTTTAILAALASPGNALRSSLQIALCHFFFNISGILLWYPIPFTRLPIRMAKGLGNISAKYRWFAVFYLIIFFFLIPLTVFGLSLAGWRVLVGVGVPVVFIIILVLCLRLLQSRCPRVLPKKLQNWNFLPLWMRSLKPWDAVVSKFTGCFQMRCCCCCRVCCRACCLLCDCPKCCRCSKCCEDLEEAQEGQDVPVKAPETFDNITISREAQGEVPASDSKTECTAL
Procedure: (§1) The binding cross-reactivity of humanized antibody variant v29456 to human, cynomolgus and mouse NaPi2b was assessed by flow cytometry using HEK293-6e transfected cells.
(§2) Briefly, HEK293-6e cells were transfected for ˜24 hours to transiently express human NaPi2b, cynomolgus or mouse NaPi2b, at 1 μg of DNA per 1 million cells. Following transfection, 50,000 cells per well were seeded in V-bottom 96-well plates and incubated with 200 nM of primary antibody for 18-24 hours at 4° C. to prevent internalization. Post-incubation, cells were washed and stained with anti-Human IgG Fc AF647 conjugate (Jackson Immuno Research Labs, West Grove, PA, Cat. No. 109-605-098, Lot. No. 124868) at 4° C. for 1 hour. Following staining and washing, fluorescence was detected by flow cytometry on BD LSRFortessa™ Cell Analyzer (BD Biosciences, Franklin Lake, NJ) with 10,000 minimum events collected per well. The AF647/APC-A GeoMean (fluorescence signal geometric mean, proportional to anti-Human AF647 binding) was calculated for the live singlet cell population for each primary antibody using FlowJo™ v8 software (BD Biosciences, Franklin Lake, NJ). The Bmax and Kd of each primary antibody were calculated using GraphPad Prism Version 9 (GraphPad Software, San Diego, CA)

[2] = molecular target: T1, human sodium-dependent phosphate …; assay: flow cytometry, HEK293-6e cells transfected with human NaPi2b; apparent Kd
Procedure: The binding cross-reactivity of humanized antibody variant v38591 to human NaPi2b, NaPi2a, and NaPi2c was assessed by flow cytometry using HEK293-6e transfected cells.
(§3) Following transfection, cells were seeded at 50,000 cells/well in conical-bottom 96-well plates and treated with test antibody for 24 hours at 4° C. to prevent internalization. Following incubation, cells were washed and stained with anti-Human IgG Fc AF647 conjugate (Jackson Immuno Research Labs, West Grove, PA; Cat. No. 109-605-098) or anti-Rabbit IgG F(ab″)2 AF647 conjugate (Jackson Immuno Research Labs, West Grove, PA; Cat. No. 111-605-047). Following incubation and washing, fluorescence was detected by flow cytometry on a BD LSRFortessa™ Cell Analyzer (BD Biosciences, Franklin Lake, NJ) with 1,000 minimum events collected per well. The AF647/APC-A GeoMean (fluorescence signal geometric mean, proportional to anti-Human AF647 binding) was calculated for the live cell population using FlowJo™ Version 10.8.1 (BD Biosciences, Franklin Lake, NJ) and plotted for each test antibody using GraphPad Prism Version 9 (GraphPad Software, San Diego, CA).

[3] = molecular target: T1, human sodium-dependent phosphate …; assay: flow cytometry, IGROV-1 cells (endogenous NaPi2b); apparent Kd
Procedure: as §3, with “Briefly,” for “Following transfection,”, “internalization. […]” for “internalization.”, “at 4° C. for 30 min.” for “or anti-Rabbit IgG F(ab″)2 AF647 conjugate (Jackson Immuno Research Labs, West Grove, PA; Cat. No. 111-605-047).”
(§4) The ability of the humanized antibody variants v38591 and v29456 to bind to NaPi2b expressed on cells was assessed on endogenous NaPi2b-expressing tumor cell lines IGROV-1 (ovarian adenocarcinoma) and TOV-21G (ovarian carcinoma) by flow cytometry.
(§5) Cellular binding was performed according to methods described in Example 13.

[4] = molecular target: T1, human sodium-dependent phosphate …; assay: flow cytometry, HEK293-6e cells transfected with human NaPi2b; apparent Kd; remark: listed apart in the source
Procedure: as §1, §2

[5] = molecular target: T1, human sodium-dependent phosphate …; assay: flow cytometry on TOV-21G cells (endogenous NaPi2b), 24 h at 4 C, anti-human IgG Fc AF647 detection
Procedure: as §3, with “Briefly,” for “Following transfection,”, “internalization. […]” for “internalization.”, “at 4° C. for 30 min.” for “or anti-Rabbit IgG F(ab″)2 AF647 conjugate (Jackson Immuno Research Labs, West Grove, PA; Cat. No. 111-605-047).”
as §4, §5

[6] = molecular target: T1, human sodium-dependent phosphate …; assay: flow cytometry on IGROV-1 cells (endogenous NaPi2b), 24 h at 4 C, anti-human IgG Fc AF647 detection
Procedure: as §3, with “Briefly,” for “Following transfection,”, “internalization. […]” for “internalization.”, “at 4° C. for 30 min.” for “or anti-Rabbit IgG F(ab″)2 AF647 conjugate (Jackson Immuno Research Labs, West Grove, PA; Cat. No. 111-605-047).”
as §4, §5

cynomolgus monkey NaPi2b [7] = molecular target: T2, cynomolgus monkey NaPi2b (cynomolgus monkey, UniProt O95436 1-690 (human entry)); assay: flow cytometry, HEK293-6e cells transfected with cynomolgus NaPi2b; apparent Kd
T2 construct: Transiently expressed on HEK293-6e cells; also called Cyno NaPi2b
T2 chain: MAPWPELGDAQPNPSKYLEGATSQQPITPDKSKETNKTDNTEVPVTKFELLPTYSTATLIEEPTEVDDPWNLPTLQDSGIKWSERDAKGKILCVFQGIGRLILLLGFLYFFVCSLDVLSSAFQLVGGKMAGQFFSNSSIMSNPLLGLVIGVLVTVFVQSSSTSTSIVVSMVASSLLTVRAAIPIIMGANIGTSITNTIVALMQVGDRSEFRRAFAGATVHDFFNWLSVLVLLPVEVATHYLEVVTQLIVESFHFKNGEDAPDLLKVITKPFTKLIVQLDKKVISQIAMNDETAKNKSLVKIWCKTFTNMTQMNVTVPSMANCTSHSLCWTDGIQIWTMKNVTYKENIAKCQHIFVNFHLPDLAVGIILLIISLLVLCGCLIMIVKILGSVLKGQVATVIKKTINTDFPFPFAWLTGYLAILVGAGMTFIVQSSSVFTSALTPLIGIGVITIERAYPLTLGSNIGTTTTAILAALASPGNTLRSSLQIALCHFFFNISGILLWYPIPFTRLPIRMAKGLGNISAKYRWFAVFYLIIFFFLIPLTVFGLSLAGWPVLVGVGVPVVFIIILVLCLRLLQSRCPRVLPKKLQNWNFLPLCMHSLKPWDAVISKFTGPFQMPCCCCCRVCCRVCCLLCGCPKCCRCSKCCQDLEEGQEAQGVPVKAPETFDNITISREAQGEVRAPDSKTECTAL
Procedure: as §1, §2

cynomolgus monkey NaPi2b [8] = molecular target: T2, cynomolgus monkey NaPi2b; assay: flow cytometry, HEK293-6e cells transfected with cynomolgus NaPi2b
Procedure: as §1, §2

[9] = molecular target: T1, human sodium-dependent phosphate …; assay: flow cytometry, TOV-21G cells (endogenous NaPi2b); apparent Kd
Procedure: as §3, with “Briefly,” for “Following transfection,”, “internalization. […]” for “internalization.”, “at 4° C. for 30 min.” for “or anti-Rabbit IgG F(ab″)2 AF647 conjugate (Jackson Immuno Research Labs, West Grove, PA; Cat. No. 111-605-047).”
as §4, §5

[10] = molecular target: T1, human sodium-dependent phosphate …; assay: flow cytometry on IGROV-1 cells (endogenous NaPi2b), 24 h at 4 C, anti-human IgG Fc AF647 detection; remark: listed apart in the source
Procedure: (§6) IGROV-1 cells express endogenous NaPi2b at a high level.
as §3, with “Briefly,” for “Following transfection,”, “internalization. […]” for “internalization.”, “at 4° C. for 30 min.” for “or anti-Rabbit IgG F(ab″)2 AF647 conjugate (Jackson Immuno Research Labs, West Grove, PA; Cat. No. 111-605-047).”

[11] = molecular target: T1, human sodium-dependent phosphate …; assay: flow cytometry, IGROV-1 cells (endogenous NaPi2b), 24 h at 4 °C
Procedure: as §6
as §3, with “Briefly,” for “Following transfection,”, “internalization. […]” for “internalization.”, “at 4° C. for 30 min.” for “or anti-Rabbit IgG F(ab″)2 AF647 conjugate (Jackson Immuno Research Labs, West Grove, PA; Cat. No. 111-605-047).”

[12] = molecular target: T1, human sodium-dependent phosphate …; assay: flow cytometry, IGROV-1 cells (endogenous NaPi2b), 24 h at 4 °C; apparent Kd
Procedure: as §6
as §3, with “Briefly,” for “Following transfection,”, “internalization. […]” for “internalization.”, “at 4° C. for 30 min.” for “or anti-Rabbit IgG F(ab″)2 AF647 conjugate (Jackson Immuno Research Labs, West Grove, PA; Cat. No. 111-605-047).”

[13] = molecular target: T1, human sodium-dependent phosphate …; assay: KinExA, IGROV-1 cells (endogenous NaPi2b) as titrant, monovalent antibody constant at 50 and 500 pM, N-curve analysis
Procedure: The cell-binding assay was set up using the antibody constructs or variants as constant binding partner at two different concentrations of 50 pM and 500 pM. For the titration curve with antibody variants fixed at 50 pM, at least 10 million IGROV-1 cells were used as titrant. For the titration curve with antibody variants fixed at 500 pM, at least 5 million cells were used as titrant. The antibody variants and cells were mixed in PBS pH 7.4, 1 mg/mL BSA, 0.2% NaN₃ and incubated at 4° C. for 7 days with gentle rotation until equilibrium was reached. After incubation, the mixture of antibody variants and cells was centrifuged to separate the cells from the unbound free antibody variants. The free antibody variants were loaded onto the KinExA 3200 (Sapidyne, Boise, Idaho) with biotinylated—anti-human IgG PMMA as solid phase and 0.5 μg/mL of Alexa 647 goat anti-human IgG (Jackson ImmunoResearch, West Grove, PA) as detection antibody.
N-curve analysis was used to calculate the affinity and receptor expression level with the concentrations of antibody variant as reference point.

B1: v18993, reference anti-NaPi2b antibody lifastuzumab (antibody, human IgG1, kappa)
heavy 1: GEVQLVESGGGLVQPGGSLRLSCAASGFSFSDFAMSWVRQAPGKGLEWVATIGRVAFHTYYPDSMKGRFTISRDNSKNTLYLQMNSLRAEDTAVYYCARHRGFDVGHFDFWGQGTLVTVSSASTKGPSVFPLAPSSKSTSGGTAALGCLVKDYFPEPVTVSWNSGALTSGVHTFPAVLQSSGLYSLSSVVTVPSSSLGTQTYICNVNHKPSNTKVDKKVEPKSCDKTHTCPPCPAPELLGGPSVFLFPPKPKDTLMISRTPEVTCVVVDVSHEDPEVKFNWYVDGVEVHNAKTKPREEQYNSTYRVVSVLTVLHQDWLNGKEYKCKVSNKALPAPIEKTISKAKGQPREPQVYVYPPSRDELTKNQVSLTCLVKGFYPSDIAVEWESNGQPENNYKTTPPVLDSDGSFALVSKLTVDKSRWQQGNVFSCSVMHEALHNHYTQKSLSLSPG
heavy 2: not shown
light: GDIQMTQSPSSLSASVGDRVTITCRSSETLVHSSGNTYLEWYQQKPGKAPKLLIYRVSNRFSGVPSRFSGSGSGTDFTLTISSLQPEDFATYYCFQGSFNPLTFGQGTKVEIKRTVAAPSVFIFPPSDEQLKSGTASVVCLLNNFYPREAKVQWKVDNALQSGNSQESVTEQDSKDSTYSLSSTLTLSKADYEKHKVYACEVTHQGLSSPVTKSFNRGEC
notes: Two different heavy chain clones (CL_#11677, CL_#11678)
In the case of B1, the “Bmax (APC-A GeoMean)” value [1] is reported as 1610 APC-A GeoMean, the Kd [2] is reported as 5.76 nM and the Kd [3] is reported as 0.81 nM. The Kd [4] was 1.22 nM, the “EC50 (read off the curve)” value [5] was roughly 0.7 nM and the “EC50 (read off the curve)” value [6] was roughly 0.8 nM. For the same binder, the Kd (cynomolgus monkey NaPi2b [7]) was 6.27 nM, the “Bmax (APC-A GeoMean)” value (cynomolgus monkey NaPi2b [8]) was 1560 APC-A GeoMean and the Kd [9] was 0.67 nM.

B2: v23855, parental mouse-human chimeric anti-NaPi2b IgG1/kappa antibody (antibody, V domains shown)
VH: QAYLQQSGAELVRPGASVKMSCKASGFTFTSYNVHWVKQTPRQGLEWIAAISPGNGDLSYNQRFKDKATLTVDRSSSTAYMQLSGLTSEDSAVYFCARGRTGMGAVDYWGQGTSVTVSS
VL: DVQMTQTASSLSASLGDRVTISCRASQDVYSYLNWYQQKPHGTVKLLIYYTSRLQSGVPSRFTGSGSGTDYSLTISNLEPEDIATYYCQQYNIFPWTFGGGTKLEIKR
notes: Full-size antibody: mouse VH/VL appended to human IGHG1*01 CH1-hinge-CH2-CH3 (ends at G446) and IGKC*01; also called parental chimeric
For B2, the “EC50 (read off the curve)” value [10] was roughly 0.8 nM, the “Bmax (MFI)” value [11] was 43700 MFI and the Kd [12] was 0.84 nM.

B3: v29814, monovalent format of parental chimeric variant 23855 (antibody, V domains shown)
VH: QAYLQQSGAELVRPGASVKMSCKASGFTFTSYNVHWVKQTPRQGLEWIAAISPGNGDLSYNQRFKDKATLTVDRSSSTAYMQLSGLTSEDSAVYFCARGRTGMGAVDYWGQGTSVTVSS
VL: DVQMTQTASSLSASLGDRVTISCRASQDVYSYLNWYQQKPHGTVKLLIYYTSRLQSGVPSRFTGSGSGTDYSLTISNLEPEDIATYYCQQYNIFPWTFGGGTKLEIK
notes: Only said to be the monovalent format of v23855; it is captured and detected with anti-human IgG; also called v29814 (parental chimeric)
For B3, the Kd [13] was 0.15 nM.
